Substitutions are numbered along the chain they refer to.
B1: anti-NOV1401 Fab IDT1 (parental, first generation) (Fab, V domains shown)
VH: QVQLLESGGGLVQPGGSLRLSCAASGFTFSDYAMSWVRQAPGKGLEWVSVIDYSSSNTYYADSVKGRFTISRDNSKNTLYLQMNSLRAEDTAVYYCAREGYSYRSIRFDYWGQGTLVTVSS
VL: DIQMTQSPSSLSASVGDRVTITCRASQSISSNLNWYQQKPGKAPKLLIYAASNLQSGVPSRFSGSGSGTDFTLTISSLQPEDFATYYCLQFDHTPFTFGQGTKVEIKR
notes: also called parental Fab; parental antibody IDT1
B2: anti-NOV1401 Fab IDT1D (HC1 + LC2) (Fab, V domains shown)
VH: B1 VH with V50T, D52A, S54V, S55G, S56A, N57P, Y59H
VL: B1 VL with F91Y, D92Y, T94L, F96Y
notes: Cross-clone: heavy chain of IDT1C with light chain of IDT1A; expressed in 293 HEK cells; also called 1DT1D
B3: anti-NOV1401 Fab IDT1B, E. coli format (Fab, V domains shown)
VH: B1 VH with Q1E, V50T, D52S, S54L, S55G, S56Q, N57E, T58K, Y59H
VL: B1 VL
B4: anti-NOV1401 Fab IDT1E (HC2 + LC2) (Fab, V domains shown)
VH: B1 VH with V50T, D52S, S54L, S55G, S56Q, N57E, T58K, Y59H
VL: B1 VL with F91Y, D92Y, T94L, F96Y
notes: Cross-clone: heavy chain of IDT1B with light chain of IDT1A; expressed in 293 HEK cells
B5: anti-NOV1401 Fab IDT1C, mammalian format (HC1 + LC1) (Fab, V domains shown)
VH: B1 VH with V50T, D52A, S54V, S55G, S56A, N57P, Y59H
VL: B1 VL
B6: anti-NOV1401 Fab IDT1A, E. coli format (Fab, V domains shown)
VH: B1 VH with Q1E
VL: B1 VL with F91Y, D92Y, T94L, F96Y
B7: anti-FXI/FXIa antibody NOV1401 (antibody, human IgG1, lambda, V domains shown)
VH: QVQLLESGGGLVQPGGSLRLSCAASGFTFSTAAMSWVRQAPGKGLEWVSGISGSGSSTYYADSVKGRFTISRDNSKNTLYLQMNSLRAEDTAVYYCARELSYLYSGYYFDYWGQGTLVTVSS
VL: QSVLTQPPSASGTPGQRVTISCSGSSSNIGSNDVSWYQQLPGTAPKLLIYKNYNRPSGVPDRFSGSKSGTSASLAISGLQSEDEADYYCSAWDQRQFDVVFGGGTKLTVLG
notes: Captured through Fc in Octet, free in solution in SET (biotinylated NOV1401 used only on the detection plate), amine-coupled in SPR; also called anti-Factor XI antibody NOV1401; target antibody

Legend:
[1] = target: B7; assay: SPR (ProteOn XPR36), NOV1401 amine-coupled, Fab as analyte, 25 C, Langmuir 1:1
Procedure: SPR binding experiments were performed on a ProteOn XPR36 instrument (Bio-Rad Laboratories, Inc.) in PBS/T buffer (50 mM phosphate, 150 mM NaCl, pH 7.4, 0.05% v/v Tween-20) at 25° C. NOV1401 (‘Ligand’) was immobilized onto an activated ProteOn GLC sensor chip (Bio-Rad Laboratories, Inc.) using standard amine coupling procedures as described by the manufacturer. Briefly, NOV1401 was injected at a concentration of […] in 20 mM sodium acetate, pH 5.0 and at a flow rate of 30 μl/min for 10 min. Unreacted groups were blocked by injecting 1 M ethanolamine.
For kinetic studies anti-NOV1401 Fabs (‘Analytes’) were diluted in PBS/T buffer to generate a dilution series with concentrations ranging from 0.125-4 nM. Fabs were injected onto surfaces with immobilized NOV1401 at a flow rate of 100 μL/min and sensorgrams were recorded for association and dissociation times of 220 s and 1800 s, respectively. Blank surfaces were used for background corrections. There was no need to regenerate surfaces since the ProteOn protein interaction array system allows to run up to six binding experiments on an identical surface in parallel.
Data processing and analysis including kₒₙ, koff, and KD determination were performed with the ProteOn Managerrm software version 3.1.0.6. Sensorgrams were fitted by applying a Langmuir 1:1 binding model (Rmax set at global) and dissociation constants were calculated from kₒₙ and koff.

[2] = target: B7; assay: solution equilibrium titration (SET), constant Fab with titrated NOV1401, RT, 1:1 fit, average
Procedure: (§1) 14 serial 2-fold dilutions of NOV1401 (from 0.1 pM to 1 nM) were prepared in assay buffer (DPBS (Life Technologies) containing 0.5% BSA and 0.02% Tween-20), and a constant concentration of anti-NOV1401 Fab was added (10 pM, 20 pM or 40 pM). A volume of 60 μl/well of each NOV1401-anti-NOV1401 mix was dispensed in triplicates to a 384-well polypropylene microtiter plate (polypropylene MTP: Greiner, Cat. #781280). Assay buffer served as a negative control and a sample containing only anti-NOV1401 served as a positive control (Bmax). The plate was sealed and incubated overnight (o/n, at least 20 h) at room temperature (RT) on a shaker. A 384-well streptavidin (SA) plate from Life Technologies (Cat. #15505) was coated with 30 μl/well of Biotin-NOV1401 diluted in assay buffer for 2 h at RT on a shaker, then washed three times with wash buffer (PBS containing 0.05% Tween 20). After that 30 μl/well of the equilibrated NOV1401-anti-NOV1401 mix was transferred from the polypropylene MTP (Greiner) to the coated SA plate and incubated for 30 min at RT on a shaker. After an additional wash step, 30 μl/well anti-human Kappa LC-HRP detection antibody (BETHYL, Cat. #A80-115P; 0.05 μg/ml diluted in assay buffer) was added to each well and incubated for 60 min at RT on a shaker. The SA plate was washed, and 30 μl/well LumiGLO read buffer (KPL, Cat. #54-61-01; LumiGLO Peroxidase Chemiluminescent Substrate) was added and incubated for 1 min at RT. RLU signal was measured by the SPECTRAMAXM5 (Molecular Devices, Sunnyvale, Calif. USA).
(§2) All measurements were performed as triplicates and average RLU signals were calculated. Data were baseline-adjusted by subtracting the value for the lowest concentration from all data points and plotted against the corresponding NOV1401 concentration. The KD was determined by non-linear curve fitting using a 1:1 fit model as shown in Equation (according to Haenel et al., 2005, Anal Biochem. 339(1):182-4):
(§3) KD and Bₘₐₓ were set as variables to be fitted by GraphPad Prism 7.03.

[3] = target: B7; assay: solution equilibrium titration (SET), 1:1 fit, average KD printed in the panel
Procedure: as §1, with “A” for “14 serial 2-fold dilutions of NOV1401 (from 0.1 pM to 1 nM) were prepared in assay buffer (DPBS (Life Technologies) containing 0.5% BSA and 0.02% Tween-20), and a constant concentration of anti-NOV1401 Fab was added (10 pM, 20 pM or 40 pM). A”
as §2, §3

[4] = target: B7; assay: cell-based or functional assay
[5] = target: B7; assay: Octet bio-layer interferometry, NOV1401 captured on anti-human IgG Fc (AHC) sensors, Fab at 25-400 nM in solution
Procedure: Affinity assessments were performed via Bio-Layer Interferometry technology. Anti-Human IgG Fc Capture (AHC) biosensors (Fortebio, Ref. 18-5060) were used to capture NOV1401. […] Buffer (Fortebio, Ref. 18-5032) alone was used for background (0 nM) determination. Fab association and dissociation were each recorded by measuring the change in layer thickness (in nanometers, nm) with time for 800 s each, all under computer control.

[6] = target: B5; assay: SET: NOV1401 titrated against a constant Fab concentration in solution, free Fab captured on a biotin-NOV1401 streptavidin plate and detected with anti-human kappa-HRP
Procedure: as §1, §3

[7] = target: B4; assay: as above
Procedure: as §1, §3

[8] = target: B2; assay: as above
Procedure: as §1, §3

Row | Binder | kon [1] | Kd [2] | Kd [3] | aPTT reversal, NOV1401/anti-NOV1401 ratio (n/n) 1/3 [4] | aPTT reversal, NOV1401/anti-NOV1401 ratio (n/n) 1/9 [4] | aPTT reversal, NOV1401/anti-NOV1401 ratio (n/n) 1/30 [4] | other results
1 | B1 | 550000 M⁻¹ s⁻¹ | 110 pM | – | – | – | – | Kd [1]: 0.44 nM; koff [1]: 0.00024 s⁻¹
2 | B2 | 440000 M⁻¹ s⁻¹ | – | 2.5 pM | 63% | 72% | 78% | –
3 | B3 | – | – | – | – | – | – | binding result [5]: binds
4 | B4 | 690000 M⁻¹ s⁻¹ | 2.5 pM | 7 pM | 72% | 84% | 83% | –
5 | B5 | 250000 M⁻¹ s⁻¹ | 9.6 pM | 9.6 pM | 79% | 80% | 78% | –
6 | B6 | – | – | – | – | – | – | binding result [5]: binds
7 | B7 | – | – | – | – | – | – | IC50 (read off the curve) [6]: 0.01 to 0.02 nM; IC50 (read off the curve) [7]: ~10 pM; IC50 (read off the curve) [8]: ~20 pM

— patent publication US20220025070A1 (Novartis, published 2022)
